Values joined by “and” are separate entries in the source; they are usually repeats but may differ in a detail not shown here. Equal entries are not always repeated.
Key:
[1] = biological target: P14 T cell receptor (TCR that specifically recognizes LCMV GP33/D^b), on CD8+ T cells of P14 TCR transgenic mice (mouse)
[2] = biological target: P14 T cell receptor (TCR that specifically recognizes LCMV GP33/D^b), on CD8+ T cells of P14 TCR transgenic mice (mouse); assay: cell-based or functional assay
[3] = biological target: Pmel T cell receptor (cognate TCR against GP100/D^b), on CD8+ T cells of Pmel TCR transgenic mice (mouse); assay: cell-based or functional assay
[4] = biological target: P14 T cell receptor (TCR that specifically recognizes LCMV GP33/D^b), on CD8+ T cells of P14 TCR transgenic mice (mouse); assay: flow cytometry, APNs on CD8+ T cells from P14 mice, in vitro
[5] = biological target: P14 T cell receptor (TCR that specifically recognizes LCMV GP33/D^b), on CD8+ T cells of P14 TCR transgenic mice (mouse); assay: flow cytometry after intravenous injection of pMHC-LNPs carrying mCD19 CAR mRNA in p14 mice
[6] = biological target: P14 T cell receptor (TCR that specifically recognizes LCMV GP33/D^b), on CD8+ T cells of P14 TCR transgenic mice (mouse); remark: listed apart in the source

Substance	percent of CD8+ T cells targeted (DiD fluorescence) [1] [%]	in vivo transfection efficiency (surface VHH) of P14 CD8+ splenocytes [2] [%]	in vivo transfection efficiency of mCD19 CAR mRNA in CD8+ T cells of p14 mice [2] [%]	in vivo transfection of CD8+ T cells with hCD19 CAR mRNA in p14 mice [2] [%]	transfection efficiency with eGFP mRNA in P14 CD8+ T cells in vitro [2] [%]	in vivo transfection of Pmel CD8+ splenocytes (surface VHH) [3]	percent of CD8+ T cells bound [4] [%]	percent of CD8+ T cells targeted [5] [%]	percent of CD8+ splenocytes stained [6] [%]	percent binding (DiD fluorescence) [1] [%]	percent of CD8+ T cells stained [4] [%]
GP33/D^b antigen-presenting nanoparticle (APN): LCMV GP33 peptide […] on H2-D^b, lipid-anchore (peptide-MHC)	> 95	40	60	30	31	3%	97	> 80			
GP33/D^b tetramer (fluorescent streptavidin tetramer of […]/H2-D^b monomers) (from UniProt P01899 25-309) (peptide-MHC)									> 95		
GP100/D^b antigen-presenting nanoparticle (APN): GP100 peptide … on H2-D^b on an mRNA lipid nanoparticle (peptide-MHC)		< 2				30% and 40%				< 2	3.22
